Where a SMILES comes first, the peptide text is derived from it. Where no end group is shown, it is not given here.
B3: Nogo-A (32-200) (other)
chain: EDEEEEEEEEEEDEDEDLEELEVLERKPAAGLSAAPVPTAPAAGAPLMDFGNDFVPPAPRGPLPAAPPVAPERQPSWDPSPVSSTVPAPSPLSAAAVSPSKLPEDDEPPARPPPPPPASVSPQAEPVWTPPAPAPAAPPSTPAAPKRRGSSGSVDETLFALPAASEPVI
notes: Recombinant, cloned into pET32a and expressed in E. coli
B4: third Grb4 SH3 domain, Grb4 residues 199-257 (other, human, UniProt O43639 199-257, looked up)
chain: VVQTLYPFSSVTEEELNFEKGETMEVIEKPENDPEWWKCKNARGQVGLVPKNYVVVLSD
modifications: also: His-tag, sequence and removal not given here, 15N-labelled
notes: range 199-257; Expressed in E. coli as a His-tagged protein; It was 15N-labelled for NMR; also called SH3_3

Tests used:
[1] = target: T1, Grb4 SH3_3 (third SH3 domain, Grb4 residues 199-257) (Homo sapiens, UniProt O43639); assay: Isothermal titration calorimetry of Nogo fragments with Grb4 SH3_3; assay type: binding
T1 construct: corresponding to the human Grb4 residues 5-61; 115-171 and 199-257 respectively; His-tag; made in house; host or cells: E. coli BL21
T1 sequence (O43639 198-256): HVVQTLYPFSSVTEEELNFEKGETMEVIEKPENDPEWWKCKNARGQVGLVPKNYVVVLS
Experimental: (§1) All calorimetric titrations were performed on a Microcal VP ITC machine (Microcal, USA). The protein/peptide samples were dissolved in the 50 mM Tris buffer (pH 7.0), with 3 mM 2-mercaptoethanol. After centrifugation for 15 min, the samples were degassed for 15 min to avoid the bubble formation. The Grb4 SH3 samples with a concentration of 0.025 or 0.05 mM were placed in the 1.4 ml reaction cell and 1.0 mM Nogo samples were loaded into the […] injection syringe. All titrations were performed at 25° C. and the obtained data was fitted using the ORIGIN software (Originlab Corporation). NMR experiments were performed on a 500 MHz Bruker DRX spectrometer equipped with an actively shielded cryoprobe and an 800 MHz Bruker Avance spectrometer (Sattler, M., et al., (1999) Prog. NMR Spectrosc. 34, 93-158.). NMR data was processed with NMRPipe (Delaglio, F et al., (1995) J. Biomol. NMR 6, 277-293) and analysed with NMRView (Johnson, B. A. & Blevins, R. A. (1994). J. Biomol. NMR 4, 603-614.).
Both Nogo-A (1-200) and Grb4 (115-257) were further dissected into different Nogo fragments and two different […] domains based on sequence alignment as detailed in Table 1 and the interactions among them were studied first by NMR HSQC titration followed by isothermal titration calorimetry (ITC) to obtain thermodynamic parameters of the binding interaction. As presented in Table 2, two complete sets of thermodynamic parameters were derived from ITC measurements, one set for the interaction between Nogo-A (32-200) and the third Grb4 SH3 domain and another set for the interaction between the 11-residue Nogo-A (171-181) and the third Grb4 SH3 domain. […] Many factors account for this observation. One possibility is that in the Nogo-A (32-200) protein, this 11-residue binding region is less accessible. Alternatively, the presence of other regions without any significant contribution to the binding will unavoidably reduce the binding affinity.

[2] = target: T2, Grb4 SH3_3 (third SH3 domain, Grb4 residues 199-257) (Homo sapiens, UniProt O43639); assay: 1H-15N NMR HSQC titration of Nogo fragments with Grb4 SH3_3; assay type: binding; conditions: two-fold excess of the peptide (FIG. 1b)
T2 construct: corresponding to the human Grb4 residues 5-61; 115-171 and 199-257 respectively; His-tag; made in house; host or cells: E. coli BL21
T2 sequence (O43639 199-257): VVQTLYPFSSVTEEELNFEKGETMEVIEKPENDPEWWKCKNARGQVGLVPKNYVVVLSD
Experimental: as §1
(§2) The ^1H-^15N HSQC titration experiments were conducted according to our previous procedure (Song J. (2003) J Biol Chem. 278, 24714-20). […]
To further validate the identified binding interaction, we determined the solution structure of the third Grb4 SH3 domain by use of heteronuclear tripleresonance NMR methodology as described briefly in Examples 1 and 2. […]

[3] = target: T3, Grb4 SH3_2 (second SH3 domain, Grb4 residues 115-170) (Homo sapiens, UniProt O43639); assay: 1H-15N NMR HSQC titration of Nogo fragments with Grb4 SH3_2; assay type: binding; conditions: for Binding detected by NMR: Grb4 fragment SH3_2
T3 construct: corresponding to the human Grb4 residues 5-61; 115-171 and 199-257 respectively; His-tag; made in house; host or cells: E. coli BL21
T3 sequence (O43639 115-171): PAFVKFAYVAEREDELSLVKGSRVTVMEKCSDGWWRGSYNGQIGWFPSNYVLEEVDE
Experimental: as §1
The ^1H-^15N HSQC titration experiments were conducted according to our previous procedure (Song J. (2003) J Biol Chem. 278, 24714-20). For structure determination, backbone sequential assignments were achieved by analysing HNCACB, CBCA(CO)NH, HNCO experiments while side chain assignments were obtained from (H)CC(CO)NH, H(CCO)NH, HCCH-TOCSY, ^15N-edited TOCSY-HSQC and NOESY-HSQC. Structure determination of the third Grb4 SH3 domain was conducted by a standard CNS (Crystallography and NMR System) protocol as described in our previous publication (Li M, et al., 2004, Eur J. Biochem. 271, 3512-22) with NOE constraints derived from ^15N- and ^13C-NOESY spectra and dihedral angle constraints from TALOS prediction using 5 different chemical shifts. The accepted NMR structure with the lowest energy was selected for analysis and manipulation to generate FIG. 1 by use of MolMol graphic software (Koradi, R., et al., (1996) J. Mol. Graphics. 14, 51-55.). […]

[4] = target: B4; assay: ITC at 25 C, peptide in syringe, SH3_3 (50 µM) in cell, Tris pH 7.0; set-up: ΔS: unit not given here
Experimental: as §1

[5] = target: B4; assay: ITC, comparison of the two sets of Table 2
Experimental: as §1

[6] = target: T4, Grb4 SH3_23 (second and third SH3 domains, Grb4 residues 115-257) (Homo sapiens, UniProt O43639); assay: 1H-15N NMR HSQC titration of Nogo fragments with Grb4 SH3_23; assay type: binding; conditions: four-fold excess of unlabelled Nogo protein; pH 6.8, 20° C. (FIG. 2)
T4 construct: Grb4 (115-257) containing the second and third SH3 domains were expressed; His-tag; made in house; host or cells: E. coli BL21
T4 sequence (O43639 115-257): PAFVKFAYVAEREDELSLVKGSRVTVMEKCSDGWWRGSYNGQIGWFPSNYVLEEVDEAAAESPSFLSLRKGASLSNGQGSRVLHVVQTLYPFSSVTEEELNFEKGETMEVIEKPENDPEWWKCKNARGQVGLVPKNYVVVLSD
Experimental: as §1, §2
The present inventors also determined whether a cross-talk existed between Nogo and Eph receptor-ephrinB mediated signalling networks, and whether Grb4 was the convergence point. […]

[7] = target: B4; assay: ITC at 25 C, Nogo in syringe, SH3_3 (25 µM) in cell, Tris pH 7.0; set-up: ΔS: unit not given here
Experimental: as §1

[8] = target: T4, Grb4 SH3_23 (second and third SH3 domains, Grb4 residues 115-257); assay: Isothermal titration calorimetry of Nogo fragments with Grb4 SH3_23; assay type: binding; conditions: Grb4 fragment SH3_23
Experimental: as §1
(§3) Both Nogo-A (1-200) and Grb4 (115-257) were further dissected into different Nogo fragments and two different […] domains based on sequence alignment as detailed in Table 1 and the interactions among them were studied first by NMR HSQC titration followed by isothermal titration calorimetry (ITC) to obtain thermodynamic parameters of the binding interaction. […]

[9] = target: T3, Grb4 SH3_2 (second SH3 domain, Grb4 residues 115-170); assay: Isothermal titration calorimetry of Nogo fragments with Grb4 SH3_2; assay type: binding; conditions: Grb4 fragment SH3_2
Experimental: as §1, §3

Nogo-A (32-200) = target: B3; assay: ITC at 25 C, Nogo in syringe, SH3_3 (25 µM) in cell, Tris pH 7.0; set-up: ΔS: unit not given here
Experimental: as §1

[10] = ITC at 25° C., Tris pH 7.0, Nogo in syringe, SH3_3 in cell (25 or 50 μM)

Ac-ARPPPPPPAS-NH2 [Nogo-A (141-150), chemically synthesised peptide, fragment 141-150 of Nogo A]
Binding detected by ITC ([1]; Grb4 fragment SH3_3): Very weak

CC(=O)N[C@@H](CO)C(=O)N[C@H](C(=O)N1CCC[C@H]1C(=O)N[C@@H](C)C(=O)N[C@@H](C)C(=O)N1CCC[C@H]1C(=O)N[C@@H](CCCCN)C(=O)N[C@@H](CCCNC(=N)N)C(=O)N[C@@H](CCCNC(=N)N)C(=O)NCC(=O)N[C@@H](CO)C(N)=O)[C@@H](C)O [Nogo-A (171-181), Ac-STPAAPKRRGS-NH2] (Ac-STPAAPKRRGS-NH2)
Ka [1, 10]: 357000 ± 21000 M⁻¹
Kd [1, 10]: 2.8 µM
Stoichiometry n [1, 10]: 0.95 ± 0.068
ΔH [1, 10]: −3,310 ± 499 cal/mol
ΔS [1, 10]: 14.3 cal/(mol·K)
Binding affinity to the third Grb4 SH3 domain relative to Nogo-A (32-200) ([1]; higher than Nogo-A (32-200)): about 30 fold
HSQC peaks of the 15N-labeled third SH3 domain undergoing a significant shift [2]: ~50%
Binding with the second Grb4 SH3 domain (specificity statement) [3]: no significant binding

B1: Nogo-A (171-181) Ac-STPAAPKRRGS-NH2 (peptide)
peptide: Ac-STPAAPKRRGS-NH2
notes: Chemically synthesised by the Fmoc method; also called 11-residue Nogo-A (171-181) peptide
Ka [4]: 357000 M⁻¹
Stoichiometry n [4]: 0.95
ΔH [4]: -3.31 kcal/mol
ΔS [4]: 14.3
fold higher binding affinity than Nogo-A (32-200) [5]: ~30 fold

B2: Nogo-A (1-200): recombinant N-terminal fragment of human Nogo-A, residues 1-200, expressed in E. coli (protein)
chain: MEDLDQSPLVSSSDSPPRPQPAFKYQFVREPEDEEEEEEEEEEDEDEDLEELEVLERKPAAGLSAAPVPTAPAAGAPLMDFGNDFVPPAPRGPLPAAPPVAPERQPSWDPSPVSSTVPAPSPLSAAAVSPSKLPEDDEPPARPPPPPPASVSPQAEPVWTPPAPAPAAPPSTPAAPKRRGSSGSVDETLFALPAASEPVI
Shifts of HSQC peaks of 15N-labeled Grb4 (115-257) [6]: significant shifts of the HSQC peaks
Binding detected by NMR [3]: Very weak

B3
Stoichiometry n [7]: 1.13
ΔH [7]: 69.6 kcal/mol
ΔS [7]: 252
Ka [1, 10]: 11500 ± 2200 M⁻¹
Kd [1, 10]: 87 µM
Binding detected by ITC [8]: Very weak
Binding detected by ITC [9]: Very weak
Binding detected by NMR [3]: Very weak

B4
Ka (Nogo-A (32-200)): 11500 M⁻¹
Kd (Nogo-A (32-200)): 87 µM

— patent publication US20090137484A1, “Neuronal Network-Interacting Peptide” (NATIONAL UNIVERSITY OF SINGAPORE, priority 2004, published 2009)
